The target of assay [1] is SARS-CoV-2 spike (S) protein (SARS-CoV-2) (UniProt P0DTC2). Put plainly: cell-based or functional assay.
The target in assay [2] is ACE2_Fc (microarray spots) (UniProt Q9BYF1). The assay can be described thus: CDI SARS-CoV-2 protein microarray, sample [..]00316 1 ug/mL, positive-control spot ACE2_Fc_0.5 read by the anti-human IgG secondary, replicate 2.
Assay [3] deals with Human IgG (microarray spot). The assay can be described thus: CDI SARS-CoV-2 protein microarray, sample [..]00347 1 ug/mL, positive-control spot Human IgG read by the anti-human IgG secondary, replicate 1.
For assay [4], the target named is Human IgG (microarray spot). Put plainly: CDI SARS-CoV-2 protein microarray, sample [..]00316 1 ug/mL, positive-control spot Human IgG read by the anti-human IgG secondary, replicate 1.
Assay [5] deals with ACE2_Fc (microarray spots) (UniProt Q9BYF1). The assay can be described thus: CDI SARS-CoV-2 protein microarray, sample [..]00347 1 ug/mL, positive-control spot ACE2_Fc_0.5 read by the anti-human IgG secondary, replicate 2.
In assay [6] the target is Human IgG (microarray spot). Put plainly: CDI SARS-CoV-2 protein microarray, sample [..]00316 1 ug/mL, positive-control spot Human IgG read by the anti-human IgG secondary, replicate 2.
Assay [7] addresses ACE2_Fc (microarray spots) (UniProt Q9BYF1). Put plainly: CDI SARS-CoV-2 protein microarray, sample [..]00347 1 ug/mL, positive-control spot ACE2_Fc_0.5 read by the anti-human IgG secondary, replicate 1.
Assay [8] has the same target. The assay can be described thus: CDI SARS-CoV-2 protein microarray, sample [..]00347 1 ug/mL, positive-control spot ACE2_Fc_0.17 read by the anti-human IgG secondary, replicate 1.
Assay [9] concerns the target Human IgG (microarray spot). Put plainly: CDI SARS-CoV-2 protein microarray, sample [..]00347 1 ug/mL, positive-control spot Human IgG read by the anti-human IgG secondary, replicate 2.
In assay [10] the target is ACE2_Fc (microarray spots) (UniProt Q9BYF1). Put plainly: CDI SARS-CoV-2 protein microarray, sample [..]00347 1 ug/mL, positive-control spot ACE2_Fc_0.17 read by the anti-human IgG secondary, replicate 2.
For assay [11] the target is unchanged. Put plainly: CDI SARS-CoV-2 protein microarray, sample [..]00316 1 ug/mL, positive-control spot ACE2_Fc_0.5 read by the anti-human IgG secondary, replicate 1.
For assay [12] the target is unchanged. The assay can be described thus: CDI SARS-CoV-2 protein microarray, sample [..]00316 1 ug/mL, positive-control spot ACE2_Fc_0.17 read by the anti-human IgG secondary, replicate 2.
Assay [13] shares this target. Put plainly: CDI SARS-CoV-2 protein microarray, sample [..]00316 1 ug/mL, positive-control spot ACE2_Fc_0.17 read by the anti-human IgG secondary, replicate 1.
Assay [14] has as its target ACE2_Fc (UniProt Q9BYF1). Put plainly: protein/peptide microarray, Anti-Hu IgG control alone, replicate 2, spot ACE2_Fc_0.5.
Assay [15] deals with ACE2_Fc (UniProt Q9BYF1). The assay can be described thus: protein/peptide microarray, sample [..]00761 10 ug/mL, replicate 1, positive-control spot ACE2_Fc_0.17 (signal of the anti-human IgG detection).
Assay [16] addresses ACE2_Fc (UniProt Q9BYF1). The assay can be described thus: protein/peptide microarray, Anti-Hu IgG control alone, replicate 2, spot ACE2_Fc_0.17.
Assay [17] deals with Human IgG (human). Put plainly: protein/peptide microarray, Anti-Hu IgG control alone, replicate 2, spot Human IgG.
The target of assay [18] is S1 (SARS-CoV-2) (UniProt P0DTC2). Put plainly: protein/peptide microarray, Anti-Hu IgG control alone, replicate 2, spot S1_0.17.
For assay [19] the target is unchanged. The assay can be described thus: protein/peptide microarray, Anti-Hu IgG control alone, replicate 1, spot S1_0.17.
Assay [20] deals with ACE2_Fc (UniProt Q9BYF1). The assay can be described thus: protein/peptide microarray, sample [..]00761 10 ug/mL, replicate 2, positive-control spot ACE2_Fc_0.17 (signal of the anti-human IgG detection).
Assay [21] has as its target ACE2_Fc (UniProt Q9BYF1). Put plainly: protein/peptide microarray, Anti-Hu IgG control alone, replicate 1, spot ACE2_Fc_0.17.
Assay [22] has as its target ACE2_Fc (UniProt Q9BYF1). Put plainly: protein/peptide microarray, Anti-Hu IgG control alone, replicate 1, spot ACE2_Fc_0.5.
Assay [23] concerns the target S1 (SARS-CoV-2) (UniProt P0DTC2). Put plainly: protein/peptide microarray, Anti-Hu IgG control alone, replicate 2, spot S1_0.5.
Assay [24] deals with ACE2_Fc (UniProt Q9BYF1). The assay can be described thus: protein/peptide microarray, sample [..]00761 10 ug/mL, replicate 1, positive-control spot ACE2_Fc_0.5 (signal of the anti-human IgG detection).
The target in assay [25] is ACE2_Fc (UniProt Q9BYF1). Put plainly: protein/peptide microarray, sample [..]00761 10 ug/mL, replicate 2, positive-control spot ACE2_Fc_0.5 (signal of the anti-human IgG detection).
Assay [26] has as its target Human IgG (human). Put plainly: protein/peptide microarray, sample [..]00761 10 ug/mL, replicate 1, positive-control spot Human IgG (signal of the anti-human IgG detection).
Assay [27] addresses Human IgG (human). Put plainly: protein/peptide microarray, Anti-Hu IgG control alone, replicate 1, spot Human IgG.
The target of assay [28] is S1 (SARS-CoV-2) (UniProt P0DTC2). The assay can be described thus: protein/peptide microarray, Anti-Hu IgG control alone, replicate 1, spot S1_0.5.
Assay [29] addresses Human IgG (human). Put plainly: protein/peptide microarray, sample [..]00761 10 ug/mL, replicate 2, positive-control spot Human IgG (signal of the anti-human IgG detection).

In [1], REGN10933 (antibody) had an IC50, SARS-CoV-2 pseudovirus neutralization assay of 0.0841 µg/mL.
Turning to secondary antibody (Anti-Human IgG), the F532 in assay [2] was found to be 167; in assay [3], 197; in [4] it was 212; in assay [5] it was 160; in assay [6], 164; in [7], 219. In addition, the F532 in assay [8] was determined as 192; in [9], 179; in assay [10], 138; in [11], 234; in [12] it was 151; in assay [13], 198. Besides, the F635 in assay [2], in assay [3], in assay [4], in [5], in [6] and in assay [7] was 65500 in each case. The F635 is 65500 in [8]; 65500 in [9]; 65500 in assay [10]; 65500 in assay [11]; 60200 in assay [12]; 65500 in [13]. The Z-Score in assay [2] was determined as 7.96; in assay [3], 8.93; in assay [4], 7.52; in assay [5], 8.89; in assay [6] it was 7.97; in [7], 8.93. For the same substance, the Z-Score is 8.93 in assay [8]; 8.89 in assay [9]; 8.89 in assay [10]; 7.52 in assay [11]; 7.32 in [12]; 7.52 in assay [13].
Consider Anti-Hu IgG (Control) (antibody), for which the F635 in [14] is 65500; in assay [15] it was 65500; in [16], 65500; in assay [17], 65500; in assay [18], 753; in [19], 1410. In addition, the F635 in [20] is 65500; in [21], 65500; in assay [22], 65500; in assay [23], 1230; in assay [24] it was 65500; in [25], 65500. The F635 stood at 65500 in assay [26], 65500 in assay [27], 1560 in [28] and 65500 in assay [29]. The Z-Score in assay [14] was 9.27; in assay [15], 7.28; in assay [16], 9.27; in assay [17], 9.27; in assay [18], -0.01; in [19], 0.08. The Z-Score was found to be 7.67 in assay [20]; 9.27 in assay [21]; 9.27 in assay [22]; 0.06 in assay [23]; 7.28 in [24]; 7.67 in assay [25]. Further, the Z-Score in [26] was determined as 7.28; in assay [27], 9.27; in assay [28] it was 0.1; in assay [29], 7.67.

(Values after patent US20230331825A1.)
